Substitutions are numbered along the chain they refer to. In names and notes the source's numbering stands.
T1: Calypso(L340A)^43–404, as in the Calypso(L340A)–ASX complex (Drosophila melanogaster, UniProt Q7K5N4 43-404, L340A)
T1 construct: Calypso, Drosophila, residues 43-404, L340A; Handled together with ASX 207-340; source: E. coli BL21 (DE3), co-expressed with ASX, purified (Ni-NTA, 3C cleavage, HiTrap Q, Superdex 200); not shown: His6, N-terminal, cleaved
T1 sequence (looked up): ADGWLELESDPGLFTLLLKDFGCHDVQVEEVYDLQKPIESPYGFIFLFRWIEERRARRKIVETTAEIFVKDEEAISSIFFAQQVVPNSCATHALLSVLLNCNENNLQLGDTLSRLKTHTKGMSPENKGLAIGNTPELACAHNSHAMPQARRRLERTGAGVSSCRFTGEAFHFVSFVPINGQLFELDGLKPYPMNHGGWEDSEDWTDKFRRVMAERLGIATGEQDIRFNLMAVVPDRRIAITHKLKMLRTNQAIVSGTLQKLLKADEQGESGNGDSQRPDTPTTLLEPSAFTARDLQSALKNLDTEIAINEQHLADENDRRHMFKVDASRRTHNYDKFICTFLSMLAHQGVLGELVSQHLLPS

T2: Calypso(N292R)^43–404, as in the Calypso(N292R)–ASX complex (Drosophila melanogaster, UniProt Q7K5N4 43-404, N292R)
T2 construct: Calypso, Drosophila, residues 43-404, N292R; Handled together with ASX 207-340; source: E. coli BL21 (DE3), co-expressed with ASX, purified (Ni-NTA, 3C cleavage, HiTrap Q, Superdex 200); not shown: His6, N-terminal, cleaved
T2 sequence (looked up): T1 sequence (looked up) with N250R, A298L

B1: ASX^207–340 (Deubad domain of Additional Sex Combs), as in the Calypso^43–404–ASX^207–340 complex (domain or fragment, Drosophila melanogaster, UniProt Q9V727 207-340, looked up)
chain: DGKIDLETPDSILASTNLRALLNKQTFSLLPPLYQYNLIQLLPSVDREASESEAIRLSASCLNNEFFARACLEWRERLSEGEFTPENQLKLKTEAEREKNKLDPWKLKHFEPFWGEKNSRG
notes: Additional Sex Combs (ASX), Drosophila, Deubad domain, residues 207-340 with residues 258-270 omitted; Second open reading frame of the co-expression construct; also called ASX Deubad; source: E. coli BL21 (DE3), co-expressed with His6-Calypso, purified (Ni-NTA, HiTrap Q, Superdex 200)
B2: Calypso^43–404 (wild type), as in the Calypso^43–404–ASX^207–340 complex (enzyme, Drosophila melanogaster, UniProt Q7K5N4 43-404, looked up)
chain: T1 sequence (looked up) with A298L
notes: Calypso, deubiquitinase of the Drosophila PR-DUB, residues 43-404 (UCH domain, coiled-coil hairpin, ULD; lacks the C-terminal positively charged tail 405-471); Always handled together with ASX 207-340, with which it was co-expressed; two copies per 2:2 complex at high concentration; also called WT^(no tail); Calypso^(no tail); source: E. coli BL21 (DE3), co-expressed with ASX, purified …
B3: Calypso(M288R)^43–404, as in the Calypso(M288R)–ASX complex (enzyme, Drosophila melanogaster, UniProt Q7K5N4 43-404, looked up)
chain: T1 sequence (looked up) with M246R, A298L
notes: Calypso, Drosophila, residues 43-404, M288R; Handled together with ASX 207-340; source: E. coli BL21 (DE3), co-expressed with ASX, purified (Ni-NTA, 3C cleavage, HiTrap Q, Superdex 200); not shown: His6, N-terminal, cleaved

Experiments:
[1] = target: B2; experiment: AUC; sedimentation velocity, c(s) analysis, 40 µM complex, 20 °C, 20 mM HEPES pH 7.8, 100 mM NaCl, 0.8 mM TCEP, 50,000 r.p.m.; details: both partners purified
[2] = target: T1, Calypso(L340A)^43–404, as in the …; experiment: SEC-MALLS; Superdex 200 5/150 GL Increase, 20 mM HEPES pH 7.5, 100 mM NaCl; wild type injected at 90 and 45 μM, wild type and mutants at ~50 μM; details: both partners purified
[3] = target: T2, Calypso(N292R)^43–404, as in the …; experiment: as above; details: both partners purified
[4] = target: the molecule itself; experiment: AUC; sedimentation velocity, c(s) analysis, 40 µM complex, 20 °C, 20 mM HEPES pH 7.8, 100 mM NaCl, 0.8 mM TCEP, 50,000 r.p.m.
[5] = target: the molecule itself; experiment: SEC-MALLS; Superdex 200 5/150 GL Increase, 20 mM HEPES pH 7.5, 100 mM NaCl; wild type injected at 90 and 45 μM, wild type and mutants at ~50 μM

Binder: B1
stoichiometry N [1]: 1 ASX per Calypso (2:2)
stoichiometry N [2]: 1 ASX per Calypso (1:1)
stoichiometry N [3]: 1 ASX per Calypso (1:1)

Binder: B2
stoichiometry N [4]: 2

Binder: B3
binding result [5]: binds

— article PMC6158172, “A bidentate Polycomb Repressive-Deubiquitinase complex is required for efficient activity on nucleosomes” (Nature Communications, 2018)
